This note sets out measurements from the nanobody polyreactivity screen of Harvey et al. (2022).

The series in a line: yeast display, Sf9 membrane polyspecificity reagent, FACS + sequencing; frameworks hold sequencing errors. A digest of the protocol: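 Galactose-induced (36–48 hours) yeast carrying a synthetic nanobody display library were exposed to 10% biotinylated, detergent-solubilized Sf9 membrane reagent at 4 °C for 1 hour. FACS followed streptavidin microbead enrichment, using low and high (top ~1%) gates for expression (anti-HA) and reagent binding (streptavidin). Colony PCR, MiSeq 2 × 250 sequencing and CDR-length filtering followed. Labels for polyreactivity reflect the gate of origin.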
As for “QVQLVESGGGLVQAGGSLRLSCAASGSIFKGYSMGWYRQAPGKERELVAAITIDGSTYYADSVKGRFTISRDNAKNTVYLQMNSLKPEDTAVYYCAAVYLWYGSWPLHFAAYDYWGQGTQVTVSS”, the “polyreactivity (PSR sort gate)” value is given as “low polyreactivity”.
With “QVQLVESGGGLVQAGGSLRLSCAASGSIFKGYTMGWYRQAPGKEREFVASISRRGGSTYYADSVKGRFTISRDNAKNTVYLQMNSLKPDDTAVYYCAKDYGKAYDYWGQGTQVTVSS” the entry was “high polyreactivity”.
Take “QVQLVESGGGLVQAGGSLRLSCAASGSIFKINAMGWYRQAPGKERELVAAITRSGGSTYYADSVKGRFTISRDNAKNTVYLQMNSLKPEDTAVYYCNASTSRRTSLSSRFYYWGQGTQVTVSS”: the “polyreactivity (PSR sort gate)” value was “high polyreactivity”.
Turning to “QVQLVESGGGLVQAGGSLRLSCAASGSIFKINAMGWYRQAPGKERELVATITWSTGTTYYADSVKGRFTISRDNAKNTVYLQMNSLKPEDTAVYYCATDGDSTKLDYWGQGTQVTVSS”, the “polyreactivity (PSR sort gate)” value is on record as “low polyreactivity”.
To “QVQLVESGGGLVQAGGSLRLSCAASGSIFKIYAMGWDRQAPGKERELVASITGSGGSTYYADSVKGRFTISRDNAKNTVYLQMNSLKPEDPAVYYCAVEAWSVPPYDYWGQGTQVTVSS” belongs “low polyreactivity”.
To “QVQLVESGGGLVQAGGSLRLSCAASGSIFKLNAMGWYRQAPGKERELVAAISRGGRTYYADSVKGRFTISRDNAKNTVYLQMNSLKPEDTAVYYCAADASSQIWYYPRDDYWGQGTLVTVSS” belongs “low polyreactivity”.
“QVQLVESGGGLVQAGGSLRLSCAASGSIFKNYAMGWYRQAPGKERELVAAITSGGRTYYADSVKGRFTISRDNAKNTVYLQMNSLKPEDTAVYYCAALGRYGYYYWGQGTQVTVSS”: the “polyreactivity (PSR sort gate)” value is given as “high polyreactivity”.
To “QVQLVESGGGLVQAGGSLRLSCAASGSIFKNYAMGWYRQAPGKERELVATISSGDSTYYADSVKGRFTISRDNAKNTVYLQMNSLKPEDTAVYYCNTTEHNYVSSFEYGYWGQGTHVTVSS” belongs “low polyreactivity”.
To “QVQLVESGGGLVQAGGSLRLSCAASGSIFKPYSMGWYRQAPGKERELVAAISTRRSSTYYADSVKGRFTFSRDNAKNTVYLQMNSLIQEDTAVYYCAKRRYLWGYEYDSWGQGTQVNVSS” belongs “high polyreactivity”; to “QVQLVESGGGLVQAGGSLRLSCAASGSIFKRNAMGWYRQAPGKERELVASISSGGSTHYADSVKGRFTISRDNAKNTVYFQMNSLKPEDTAVYYCAATSIRWSVGSFRRDYWGQGTQVTVSS”, “low polyreactivity”; to “QVQLVESGGGLVQAGGSLRLSCAASGSIFKRNAMGWYRQAPGKERELVASISSGGSTHYADSVKGRFTNSRDNAKNTVYLQMNSLKPEDTAVYYCAATSIRWSVGSFRRDYWGQVTQVTVSS”, “low polyreactivity”.
To “QVQLVESGGGLVQAGGSLRLSCAASGSIFKSYAMGWYRQAPGKERELVAAISGSGGRTYYADSVKGRFTISRDNAKNTVYLQMNSLKPEDTAVYYCNALASIRTHTGYAYSPPYDYWGQGTQVTVSS” belongs “high polyreactivity”.
Take “QVQLVESGGGLVQAGGSLRLSCAASGSIFKSYAMGWYRQAPGKERELVAAITRSGGSTYYADSVKGRFTISRDNAKNTVYLQMNSLKPEDTAVYYCAKKAPYWSYYYWGQGTQVTVSS”: the “polyreactivity (PSR sort gate)” value was “high polyreactivity”.
To “QVQLVESGGGLVQAGGSLRLSCAASGSIFKTNAMGWYRQAPGKERELVAAIYRSDGTDYADSVKGRFTISRDNAKNTVYLQMNSLKPEDTAVYYCNADKWSVVGYVLGFYRDDYWGQGSQVTVSS” belongs “low polyreactivity”; to “QVQLVESGGGLVQAGGSLRLSCAASGSIFKTNAMGWYRQAPGKERELVAGISNGGSTNYADSVKGRFTISRDNAKNTVYLQMNSLKPEDTAVYYCAAPYTSQTIPDYVRYFIEYDYWGQGTQVTVSS”, “low polyreactivity”.
To “QVQLVESGGGLVQAGGSLRLSCAASGSIFKVNVMGWSRQAPGKERELVAAISRSGGNTYYADSVKGRFTISRDNAKNTVYLQMIILKPEDTGVYYCANDRRYYKAYDYWGQGTRVTVSS” belongs “low polyreactivity”; to “QVQLVESGGGLVQAGGSLRLSCAASGSIFKWYAMGWYRQAHGKERELVAAITNGGGSTYYADSVKGRFTISRDNAKNTVYLQMNSLKPEDTAVYYCNADSYYYPYDYWGQGTQVTVSS”, “low polyreactivity”; to “QVQLVESGGGLVQAGGSLRLSCAASGSIFKYNAMGWYRKAPGKERELVAAISWSGASTSYADSVKGRFTISRDNAKNTVYLQMNSLKPEDTAVYYCNAYYWYYSTRKYYYWGQGTKVTVSS”, “high polyreactivity”.
Turning to “QVQLVESGGGLVQAGGSLRLSCAASGSIFKYNAMGWYRQAPGKERELVAAISNDGGRTYYADSVKGRFTISRDNAKNTVYLQMNSLKPEDTPVYDGNVVRVRYYWWEFDYWGQGTQVTVSS”, the “polyreactivity (PSR sort gate)” value is listed as “high polyreactivity”.
Regarding “QVQLVESGGGLVQAGGSLRLSCAASGSIFKYYAMAWYRQSPGNERELVAAISSGGRTYYADSVKGRFTISRDNAKNTVYLQMNSLKPEDTAVYYCNRVGTYHSYDYWGQGTQVTVSS”, the “polyreactivity (PSR sort gate)” value is reported as “high polyreactivity”.
With “QVQLVESGGGLVQAGGSLRLSCAASGSIFKYYAMGWYIQAPGKERELVAAITYSGGSTYYADSVKGRFTISRDNAKNTVYLQMNSLKPEDTAVYYCNKVYKSYYWGGYEWGQATQVTVSS” the entry was “high polyreactivity”; with “QVQLVESGGGLVQAGGSLRLSCAASGSIFKYYAMGWYRQAPGKERELVAAISSNGGRTYYADSVKGRFTISRDNAKNTVYLQMNSLKPEDTAVYYCNVVVKGAWDYYPYDYWGQGTQVTVSS”, “high polyreactivity”.
Take “QVQLVESGGGLVQAGGSLRLSCAASGSIFKYYAMGWYRQAPGKERELVAAISSSGNTYYADSVKGRFTISRDNAKNTVYLQMNSLKPEDTAVYYCNAYRPGEMDYWGQGTQVTVSS”: the “polyreactivity (PSR sort gate)” value is recorded as “high polyreactivity”.
With “QVQLVESGGGLVQAGGSLRLSCAASGSIFKYYAMGWYRQARGKERELVAVITSGGSTYYADSVKGLFTISRDNAKNTVYLQMNSLKPEDTAVYYCAAGVRAYNWGEYDYWGQGTQVTVSS” the entry was “low polyreactivity”; with “QVQLVESGGGLVQAGGSLRLSCAASGSIFLANAMGWYRQAPGKERELVAGISSSVTTNYADSVKGRFTISRDNAKNTVYLQMNSLKPEDTAVYYCNTVLRVQFYWGQGTQVSVSS”, “low polyreactivity”; with “QVQLVESGGGLVQAGGSLRLSCAASGSIFLAYAMGWYRQAPGKEMELVATISVSGTTTYYADSVKGRFTISRDNAKNTVYLQMNSLKPEDTAVYYCAADQQDGLWDYQDWYDYWGQGTQVTVSS”, “low polyreactivity”.
“QVQLVESGGGLVQAGGSLRLSCAASGSIFLDNAMGWYRQAPGKEREFVATISWRTGRTYYADSVKGRFTISRDNAKNTVYLHMNSLKPEDTAVYYCAVDTVRNHRMDYWGQGTQVTVSS”: the “polyreactivity (PSR sort gate)” value is given as “low polyreactivity”.
With “QVQLVESGGGLVQAGGSLRLSCAASGSIFLDNAMGWYRQAPGKERELVAAISWSAGSTYYADSVKGRFTISRDNAKNTVYLQMNSLKPEDTAVYYCAAESYPGWYWDDYWGQGTQVTVSS” the entry was “high polyreactivity”; with “QVQLVESGGGLVQAGGSLRLSCAASGSIFLFNAMGWNRQAPGKERELVAANTSSGTRTYYADSVKGRFTISRDNAKNTVYLQMNSMKPEDTAVYYCNAVGPVDSYHRYYYWGQGTQVTVSS”, “low polyreactivity”.
Turning to “QVQLVESGGGLVQAGGSLRLSCAASGSIFLFNAMGWYRQAPGKERELVAAINRDDSTYYADSVKGRFTISRDNAKNTVYLQMNSLKPEDTAVYYCAAPVLHASYGYGYWGQGTQGTVSS”, the “polyreactivity (PSR sort gate)” value is reported as “low polyreactivity”.
